Measured values published in patent publication US20260097076A1 (ELPIS BIOPHARMACEUTICALS, published 2026).

How the values were obtained:
[1] = molecular target: T1, B Cell Maturation Antigen (BCMA) on cells (UniProt Q02223 1-184, limits assumed); test: flow cytometry, serial diluted scFv on BCMA/CHOK1 cells
T1 construct: whole, on cells; One molecule is used for the recombinant (CHOK1) and the endogenous (myeloma lines) cell-surface BCMA; also called tumor necrosis factor receptor superfamily member 17 (TNFRSF17); CD269
T1 sequence (looked up): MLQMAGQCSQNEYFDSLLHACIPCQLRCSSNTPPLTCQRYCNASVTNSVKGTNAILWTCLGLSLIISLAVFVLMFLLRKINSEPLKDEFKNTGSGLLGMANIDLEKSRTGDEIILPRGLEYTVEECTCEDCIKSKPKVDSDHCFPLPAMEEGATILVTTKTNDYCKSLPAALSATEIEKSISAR
Method: Cells were spun down at 1200 rpm for 6 minutes at 4° C. to remove primary antibodies. Cells were then washed once with 200 μL of full medium per well. Samples were detected with premixed anti-His Biotin Streptavidin Alexa fluor 647 by adding 100 μL of diluted secondary antibody and incubated at 4° C. for 30 minutes in the dark. Samples were spun down at 1200 rpm for 5 minutes at 4° C. and washed twice with 200 μL of 1×PBS per well. Reconstituted samples in 200 μL of 1×PBS and read on Attune NxT cytometer. Analysis was done by Attune NxT software plotting the overlaying the histogram of anti-BCMA scFvs binding onto both negative and target cell lines. […] The BCMA cell binding affinity for exemplary anti-BCMA antibodies (in scFv format) was also generated with serial diluted scFvs as described above.

Human BCMA-Fc [2] = molecular target: T2, Human BCMA-Fc (human, UniProt Q02223 1-54); test: SPR, Biacore T200, BCMA-Fc captured on Protein A chip, scFv as analyte
T2 construct: also called human BCMA-Fc protein; recombinant BCMA-Fc fusion protein; not shown: Fc part (captured by anti-human Fc antibody or Protein A)
T2 sequence (looked up): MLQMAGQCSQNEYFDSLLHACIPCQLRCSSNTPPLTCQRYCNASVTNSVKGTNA
Method: Kinetic analysis of anti-BCMA scFvs have been assessed by SPR technology with Biacore T200. The assay was run with Biacore T200 control software version 2.0. Protein A sensor chip was used to capture Fc fusion protein in the assay. For each cycle, 1 μg/mL of human BCMA-Fc protein was captured for 60 seconds at flow rate of 10 ul/min on flow cell 2 in 1×HBSP buffer on Protein A sensor chip. 2-fold serial diluted HIS tag purified anti-BCMA scFv was injected onto both reference flow cell 1 and BCMA-Fc captured flow cell 2 for 150 seconds at flow rate of 30 ul/min followed by wash for 300 seconds. The flow cells were then regenerated with Glycine pH2 buffer (GE) for 30 seconds at flow rate of 30 ul/mins. 8 concentration points from 300-0 nM was assayed per anti-BCMA scFv in a 96 well plate. The kinetics of scFvs binding to BCMA protein was analyzed with Biacore T200 evaluation software version 3.0. The specific binding response unit was derived from subtraction of binding to reference flow cell 1 from BCMA captured flow cell 2.

Human BCMA-Fc [3] = molecular target: T2, Human BCMA-Fc; test: ELISA, human BCMA-Fc captured by anti-human Fc, scFv detected with anti-Flag HRP
Method: An ELISA assay was developed to determine the EC₅₀ of anti-BCMA antibodies. Briefly, 384 well plate was immobilized with anti-human Fc antibody at final concentration of 2 μg/mL in 1×PBS in total volume of 25 uL per well. The plate was incubated overnight at 4° C. followed by blocking with 80 μL of superblock per well for 1 hour. Human BCMA-Fc was captured through immobilized anti-hFc antibody. Purified anti-BCMA scFvs were 2-fold serial titrated from 200 nM. 25 μL of diluted scFv was added to human BCMA immobilized wells and incubated for 1 hour with shaking. The BCMA binding was detected by adding 25 μL of anti-Flag HRP diluted at 1:5000 in 1×PBST. In between each step, the plate was washed 3 times with 1×PBST in a plate washer. The plate was then developed with 20 μL of TMB substrate for 5 mins and stopped by adding 20 μL of 2 N sulfuric acid. The plate was read at OD450 nm Biotek plate reader and then plotted in Prism 8.1 software.

[4] = molecular target: T1, B Cell Maturation Antigen (BCMA) on …; test: flow cytometry on H929 multiple myeloma cells (endogenous BCMA)
[5] = molecular target: T1, B Cell Maturation Antigen (BCMA) on …; test: flow cytometry on MM1R multiple myeloma cells (endogenous BCMA)

B1: BC-01 (anti-BCMA antibody in scFv format) (scFv)
scFv: EVQLVQSGGGVVQPGGSLRLSCAASGFTFSSYGMHWVRQAPGKGLEWVAFIRYDGSNKYYADSVKGRFTISRDNSKNTLYLQMNSLRAEDTAVYYCAKDLWDGIVGAPAGYWGQGTLVTVSSGGGGSGGGGSGGGGSDVVMTQSPSSLSASVGDRVTITCQASQDISNYLNWYQQKPGKAPKLLIYDASNLETGVPSRFSGSGSGTDFTFTISSLQPEDIATYYCQQYDNLPLTFGGGTKVEIK
notes: Human scFv from mRNA display, VH-(G4S)3-VL, expressed in E. coli periplasm, His-purified; not shown: C-terminal flag and 6xHis tag
- EC50 [1]: 18.9 nM
- Kd (Human BCMA-Fc [2]): 3 nM
- koff (Human BCMA-Fc [2]): 0.000431 s⁻¹
- kon (Human BCMA-Fc [2]): 144000 M⁻¹ s⁻¹
- EC50 (Human BCMA-Fc [3]): 0.938 nM

B2: BC-02 (anti-BCMA antibody in scFv format) (scFv)
scFv: QVQLVQSGGGVVQPGGSLRLSCAASGFTFSSYGMHWVRQAPGKVLEWVAFIRYDGSNKYYADSVKGRFTISRDNSKNTLYLQMNSLRAEDTAVYYCAKDWDYYDSSGYYPDALGIWGQGTMVTVSSGGGGSGGGGSGGGGSEIVLTQSPSSLSASVGDRVTITCQASQDISNYLNWYQQKPGKAPKLLIYDASNLETGVPSRFSGSGSGTDFTFTISSLQPEDIATYYCQQYDNLPFTFGPGTKVDIK
notes: as for B1
- EC50 [1]: 84 nM
- Kd (Human BCMA-Fc [2]): 12.9 nM
- koff (Human BCMA-Fc [2]): 0.00118 s⁻¹
- kon (Human BCMA-Fc [2]): 91600 M⁻¹ s⁻¹
- EC50 (Human BCMA-Fc [3]): 1.92 nM

B3: BC-03 (anti-BCMA antibody in scFv format) (scFv)
scFv: QMQLVQSGGGVVQPGGSLRLSCAASGFTFSSYGMHWVRQAPGKGLEWVAFIRYDGSDKYYADSVKGRFTISRDNSKNTLYLQMNSLRAEDTAVYYCAKDLTTITPGYWGQGTLVTVSSGGGGSGGGGSGGGGSVIQMTQSPSSLSASVGDRVTITCQASQDISNYLNWYQQKPGKAPKLLIYDASNLETGVPSRFSGSGSGTDFTFTISSLQPEDIATYYCQQYDNLPLTFGGGTKVEIK
notes: as for B1
- EC50 [1]: 16.1 nM
- Kd (Human BCMA-Fc [2]): 11.9 nM
- koff (Human BCMA-Fc [2]): 0.00359 s⁻¹
- kon (Human BCMA-Fc [2]): 302000 M⁻¹ s⁻¹
- EC50 (Human BCMA-Fc [3]): 2.32 nM

B4: BC-05 (anti-BCMA antibody in scFv format) (scFv)
scFv: QMQLVQSGGGVVQPGGSLRLSCAASGFTFSSYGMHWVRQAPGKGLEWVAFIRYDGSNKYYADSVKGRFTISRDNSKNTLYLQMNSLRAEDTAVYYCAKDWEDPLYYYDTPFWGQGTLVTVSSGGGGSGGGGSGGGGSVIWMTQSPSSVSASVGDIITITCQASQDINNYLNWYQLKPGKAPKLLIYDASNVETGVPSRFSGSGSGTDFTFTISSLQPEDTATYYCQQYDKLPYTFGQGTKLEIK
notes: as for B1
- EC50 [1]: 4.91 nM
- Kd (Human BCMA-Fc [2]): 10.4 nM
- koff (Human BCMA-Fc [2]): 0.000646 s⁻¹
- kon (Human BCMA-Fc [2]): 62400 M⁻¹ s⁻¹
- EC50 (Human BCMA-Fc [3]): 0.536 nM

B5: BC-06 (anti-BCMA antibody in scFv format) (scFv)
scFv: EVQLVESGGGLVQPGRSLRLSCAASGFTFDDYAMHWVRQAPGKGLEWVSGISWNSGSIGYADSVKGRFTISRDNAKNSLYLQMNSLRAEDTALYYCAKVQPPGAFDIWGQGTMVTVSSGGGGSGGGGSGGGGSDIQLTQSPSFLSASVGDRVSITCRSTQGISSYLGWYQQKPGKAPKLLIYATSTLQSGVPSRFSGSGSGTEFTLTISSLQPEDFATYYCQQLYSFGQGTKLEIK
notes: Human scFv from mRNA display, VH-(G4S)3-VL, expressed in E. coli periplasm, His-purified; also called clone BC-06; not shown: C-terminal flag and 6xHis tag
- EC50 [1]: 1.9 nM
- EC50 [4]: 2.85 nM
- EC50 [5]: 0.74 nM
- Kd (Human BCMA-Fc [2]): 7.87 nM
- koff (Human BCMA-Fc [2]): 0.00251 s⁻¹
- kon (Human BCMA-Fc [2]): 319000 M⁻¹ s⁻¹
- EC50 (Human BCMA-Fc [3]): 0.62 nM

B6: BC-07 (anti-BCMA antibody in scFv format) (scFv)
scFv: EVQLVESGGGLVQPGRSLRLSCAASGFTFDDYAMHWVRQAPGKGLEWVSGISWNSGSIGYADSVKGRFTISRDNAKNSLYLQMNSLRAEDTALYYCAKVQSPGAFDIWGQGTMVTVSSGGGGSGGGGSGGGGSDIQLTQSPSFLSASVGDRVSITCRSTQGISSYLGWYQQKPGKAPKLLIYATSTLQSGVPSRFSGSGSGTEFTLTISSLQPEDFATYYCQQLYSFGQGTKLEIK
notes: as for B1
- EC50 [1]: 13.2 nM
- Kd (Human BCMA-Fc [2]): 26.2 nM
- koff (Human BCMA-Fc [2]): 0.00592 s⁻¹
- kon (Human BCMA-Fc [2]): 226000 M⁻¹ s⁻¹
- EC50 (Human BCMA-Fc [3]): 0.802 nM

B7: BC-08 (anti-BCMA antibody in scFv format) (scFv)
scFv: QVQLVQSGGGVVQPGRSLRLSCAASGFTFSSYAMHWVRQAPGKGLEWVAVISYDGSNKYYADSVKGRFTISRDNAENSVYLQMNSLRAEDTAVYYCARDEHQVVPNYRFDFWGQGSQVTVSSGGGGSGGGGSGGGGSQLVLTQPPSASGTPGQRVTISCSGSGSNIGSNDVSWYQQIPGTASKLLIYWNDQRPSGVPDRFSGSKSGTSASLAISGLQSEDEADYYCAAWDDSLNGWVFGGGTKLTVL
notes: as for B1
- EC50 [1]: 1 nM
- Kd (Human BCMA-Fc [2]): 0.653 nM
- koff (Human BCMA-Fc [2]): 0.00116 s⁻¹
- kon (Human BCMA-Fc [2]): 1.78e+06 M⁻¹ s⁻¹
- EC50 (Human BCMA-Fc [3]): 0.299 nM

B8: BC-09 (anti-BCMA antibody in scFv format) (scFv)
scFv: QVQLVQSGGGVVQPGGSLRLSCAASGFTFSSYGMHWVRQAPGKGLEWVAFIRYDGSNKYYADSVKGRFTISRDNSKNTLYLQMNSLRAEDTAVYYCAKDLWEFGGDYADYWGQGTLVTVSSGGGGSGGGGSGGGGSNIQMTQSPSSLSASVGDRVTITCQASQDISNYLNWYQQKPGKAPKLLIYDASNLETGVPSRFSGSGSGTDFTFTISSLQPEDIATYYCQQYDNLPLTFGGGTKVEIK
notes: as for B1
- EC50 [1]: 5.28 nM
- Kd (Human BCMA-Fc [2]): 19.6 nM
- koff (Human BCMA-Fc [2]): 0.00407 s⁻¹
- kon (Human BCMA-Fc [2]): 208000 M⁻¹ s⁻¹
- EC50 (Human BCMA-Fc [3]): 0.597 nM
